B1: proCDF3 probe (P2 site) (dsDNA)
DNA 1: CGTCAACTCGCCGGCGGCGACTTCGTCGGA
DNA 2: TCCGACGAAGTCGCCGCCGGCGAGTTGACG
B2: proCDF1 probe (P1 site) (dsDNA)
DNA 1: ACGACGTTGGCCGGCGGCGGCGAATTCACGGCGGCTAAACGAGTTTT
DNA 2: AAAACTCGTTTAGCCGCCGTGAATTCGCCGCCGCCGGCCAACGTCGT

Target: SlERF4-9-GST (Solanum lycopersicum (tomato), UniProt A0A3Q7G811 1-264)
Experiment: EMSA; Beyotime Chemiluminescent EMSA Kit; 100x cold probe as competitor; buffer, salt, pH and temperature not stated
Conditions: protein: recombinant; tags: GST (pGEX6P-1); label: biotin on both strands (3' end); blunt

Sequence of SlERF4-9-GST (A0A3Q7G811 entry or part of it): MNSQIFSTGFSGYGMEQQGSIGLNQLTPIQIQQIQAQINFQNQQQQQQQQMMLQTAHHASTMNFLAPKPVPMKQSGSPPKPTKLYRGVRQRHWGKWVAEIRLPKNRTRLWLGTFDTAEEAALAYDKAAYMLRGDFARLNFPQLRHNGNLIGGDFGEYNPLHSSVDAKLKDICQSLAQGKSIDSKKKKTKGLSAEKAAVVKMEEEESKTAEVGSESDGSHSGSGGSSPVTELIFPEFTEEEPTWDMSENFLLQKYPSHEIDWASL

| Binder | binding result |
| --- | --- |
| B1 | binds |
| B2 | binds |

Source: article PMC11985770, “The SlERF4-9-SlCDF1/3-SlAEC2/SlPIN5 module regulates tomato root morphogenesis”
